Assay results taken from patent publication US7235627B2 (Novo Nordisk A/S, priority 1996, dated 2007).

What was measured:
[1] = biological target: T1, cloned human GLP-1 receptor (Homo sapiens, UniProt P43220); assay: biochemical
[2] = biological target: T1, cloned human GLP-1 receptor; assay: cell-based or functional assay

T1 sequence (P43220 24-463): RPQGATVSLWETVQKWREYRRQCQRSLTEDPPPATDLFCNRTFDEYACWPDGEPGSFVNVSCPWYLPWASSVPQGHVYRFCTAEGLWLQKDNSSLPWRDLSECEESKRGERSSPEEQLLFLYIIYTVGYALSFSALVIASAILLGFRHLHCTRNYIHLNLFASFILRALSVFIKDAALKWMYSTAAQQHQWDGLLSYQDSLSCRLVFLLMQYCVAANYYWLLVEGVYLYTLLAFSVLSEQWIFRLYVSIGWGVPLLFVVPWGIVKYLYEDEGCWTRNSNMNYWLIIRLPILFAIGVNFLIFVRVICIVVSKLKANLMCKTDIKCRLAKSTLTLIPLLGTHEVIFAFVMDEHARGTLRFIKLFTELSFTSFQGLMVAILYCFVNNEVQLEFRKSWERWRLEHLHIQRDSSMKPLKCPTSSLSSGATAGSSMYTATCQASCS

CC[C@H](C)[C@H](NC(=O)[C@H](Cc1ccccc1)NC(=O)[C@H](CCC(=O)O)NC(=O)[C@H](CCCNC(=N)N)NC(=O)[C@H](C)NC(=O)[C@H](C)NC(=O)[C@H](CCC(N)=O)NC(=O)CNC(=O)[C@H](CCC(=O)O)NC(=O)[C@H](CC(C)C)NC(=O)[C@H](Cc1ccc(O)cc1)NC(=O)[C@H](CO)NC(=O)[C@H](CO)NC(=O)[C@@H](NC(=O)[C@H](CC(=O)O)NC(=O)[C@H](CO)NC(=O)[C@@H](NC(=O)[C@H](Cc1ccccc1)NC(=O)[C@@H](NC(=O)CNC(=O)[C@H](CCC(=O)O)NC(=O)[C@H](C)NC(=O)[C@@H](N)Cc1c[nH]cn1)[C@@H](C)O)[C@@H](C)O)C(C)C)C(=O)N[C@@H](C)C(=O)N[C@@H](Cc1c[nH]c2ccccc12)C(=O)N[C@@H](CC(C)C)C(=O)N[C@H](C(=O)N[C@@H](CCCNC(=N)N)C(=O)NCC(=O)N[C@@H](CCCNC(=N)N)C(=O)NCC(=O)N[C@@H](CCCCNC(=O)CCCCCCCCCCC(=O)O)C(=O)O)C(C)C [Example 16, Arg^26,34Lys^38(N^ε-(ω-carboxyundecanoyl))-GLP-1(7–38)-OH] showed an EC50 [1] of 3.5 pM.

“Arg^34Lys^26(N^ε-(γ-glutamyl(N^α-hexadecanoyl)))-GLP-1(7-37)-OH (peptide)” was tested, and the EC50, pM (stimulation of cAMP formation) [2] was 60 pM.

“Arg^26,34Lys^36(N^ε-(ω-carboxyheptanoyl))-GLP-1(7-36)-OH (peptide)” showed an EC50, pM (stimulation of cAMP formation) [2] of 8.8 pM.

“Arg^26,34Lys^38(N^ε-(ω-carboxyundecanoyl))-GLP-1(7-38)-OH (peptide)” gave an EC50, pM (stimulation of cAMP formation) [2] of 3.5 pM.
